Source: patent US20090291088A1, “THERAPEUTIC COMBINATIONS OF ANTI-IGF-1R ANTIBODIES AND OTHER COMPOUNDS” (Biogen Idec MA Inc., priority 2008, published 2009)

B1: M13-C06 Fab (Fab, V domains shown)
VH: EVQLLESGGGLVQPGGSLRLSCAASGFTFSIYRMQWVRQAPGKGLEWVSGISPSGGTTWYADSVKGRFTISRDNSKNTLYLQMNSLRAEDTAVYYCARWSGGSGYAFDIWGQGTMVTVSS
VL: DIQMTQSPLSLSASVGDRVTITCQASRDIRNYLNWYQQKPGKAPKLLIYDASSLQTGVPSRFGGSGSGTDFSFTIGSLQPEDIATYYCQQFDSLPHTFGQGTKLEIK
B2: M14-C03 Fab (Fab, V domains shown)
VH: EVQLLESGGGLVQPGGSLRLSCAASGFTFSKYMMSWVRQAPGKGLEWVSYISPSGGLTWYADSVKGRFTISRDNSKNTLYLQMNSLRAEDTAVYYCARDGARGYGMDVWGQGTTVTVSS
VL: DIQMTQSPATLSLSPGERATLSCRASQSVSSYLAWYQQKPGQAPRLLIYDASNRATGIPARFSGSGSGTDFTLTISSLEPEDFAVYYCQQRSNWPPEVTFGPGTKVDIK

Columns and labels:
[1] = target: All other mutant IGF-1R constructs (SD001-SD019 other than SD015); assay: SPR, Fab over captured mutant receptor-Fc
[2] = target: murine IGF-1R(1-903)-Fc (mouse; human) (UniProt Q60751); assay: SPR, Fab over captured mIGF-1R-Fc, 3 hr dissociation
[3] = target: murine IGF-1R(1-903)-Fc (mouse; human) (UniProt Q60751); assay: SPR, Fab over mIGF-1R-Fc captured by anti-Fc, apparent affinity
[4] = target: murine IGF-1R(1-903)-Fc (mouse; human) (UniProt Q60751); assay: SPR
[5] = target: murine IGF-1R(1-903)-Fc (mouse; human) (UniProt Q60751); assay: SPR, Fab over captured mIGF-1R-Fc

Row | Binder | Kd [1] [nM] | koff [2] [s⁻¹] | Kd [3] [nM] | fold decrease in binding against human IGF-1R Fc [4] [fold] | kon [5] [M⁻¹ s⁻¹]
1 | B1 | 1 | 4.2e-05 | 89.1 | 100 | 471
2 | B2 | 5 | – | – | – | –
